What was measured:
TF-factor VIIa complex = biological target: T1, TF-factor VIIa complex (Homo sapiens, UniProt P13726); test: Activated factor X generation assay with purified TF, factor VIIa and factor X (chromogenic substrate); format: biochemical
T1 construct: purchased American Diagnostica (Stanford, Conn., USA)
Experimental: FIG. 1A. Recombinant human TF, recombinant human factor VIIa, and plasma-derived human factor X were incubated (15 min, 37° C.) in a total assay volume of 125 μL. Chromogenic substrate for the detection of factor Xa was then added (final concentration 1 mM). Recombinant active heparanase GS3 (Hepa) was added prior to the addition of the coagulation factors. The mean value±SD of three independent experiments in shown. […]
FIG. 1C. […] The mean value of two experiments is shown. Note a 2-fold increase in coagulation activity when the medium contained heparanase or its derivatives.
Following preliminary experiments to quantify the appropriate protein doses, we performed a basic experiment of factor Xa generation in the following manner: the concentrations mentioned are the final concentrations. Lipidated recombinant human TF (0.004 μM, […]), recombinant human factor VIIa (0.04 μM) and plasma-derived human factor X (1.4 μM) were incubated in 50 μL assay buffer (0.06 M Tris, 0.04 M NaCl, 2 mM CaCl 2, 0.04% bovine serum albumin, pH 8.4) to a total volume of 125 μL in a 96-well sterile plate. After 15 min at 37° C., chromogenic substrate for factor Xa was added (1 mM). After 20 min, the reaction was stopped with 50 μL of glacial acetic acid and the level of factor Xa generation was determined using an enzyme-linked immunosorbent assay (ELISA) plate reader (Power Wave XS, BIO-TEK, VT, USA). In order to visualize the increased production of factor Xa by western blotting, the experiment was repeated with 7 μM factor X. After 15 min at 37° C., half of the reaction volume was subjected to blotting using monoclonal anti-human factor X/Xa heavy chain antibody.
The factor Xa generation assay was performed as described in the Design and Methods section with increasing doses of recombinant human heparanase (GS3) added prior to the addition of the coagulation factors. […] It should be noted that factor X is composed of two polypeptide chains, a heavy chain with a molecular weight of 38 kDa and a light chain with a molecular weight of 18 kDa joined by a dipeptide Arg-Arg. The factor VIIa-TF complex activates the conversion of factor X to factor Xa by cleaving the heavy chain to a 33 kDa peptide. […] In order to exclude contamination of the heparanase preparation during the routine procedure of purification described in the Design and Methods section, the inventors tested the effect of overnight serum-free without phenol medium of 293 HEK cells over-expressing heparanase and its derivatives compared to mock. The proteins were further purified from the culture medium and analyzed. Similar quantities of proteins were obtained from the culture media.

[1] = system: TF-heparanase interaction; test: Co-immunoprecipitation of TF and heparanase; format: binding, human; details: purified TF and GS3 active heparanase 1 μg/mL each
Experimental: FIGS. 7A-7B: Direct interaction between heparanase and TF FIG. 7A. Co-immunoprecipitation. Purified TF (1 μg/mL) and GS3 active heparanase (1 μg/mL) proteins were incubated with beads coupled to polyclonal anti-TF (upper panel), or anti-heparanase (lower panel) antibodies. Bound proteins were analyzed by immunoblotting for the presence of heparanase (upper panel) or TF (lower panel), using the respective monoclonal antibody.
The interaction between TF and heparanase was analyzed by co-immunoprecipitation (Co-IP). The ProFound™ Co-Immunoprecipitation Kit in which the antibody is coupled to gel support, was employed according to the manufacturer's instruction (Pierce, Rockford, Ill., USA). Briefly, coupling gel was washed with coupling buffer. Polyclonal anti-TF or polyclonal anti-heparanase (1453) antibodies (100 μg) and 5 M sodium cyanoborohydride, were added to the gel support and incubated at 4° C. for 4 hours. The gel was then washed with quenching buffer and incubated with the quenching buffer and sodium cyanoborohydride at 20° C. for 30 minutes. Next, the gel was washed 4 times with wash solution, once with elution buffer, and twice with coupling buffer. Purified proteins (0.5 μg) were added to the gel and incubated for 2 hours at 4° C. […]

ICR mice [2] = test: Intra-peritoneal injection of heparanase to ICR mice, blood drawn after 4 hours (ELISA); format: in vivo; details: for IL-6 level: heparanase intra-peritoneal
Experimental: Heparanase or LPS were injected to ICR mice and blood was drawn after 4 hours. Intra-peritoneal injection of heparanase (0.5 μg/mg) compared to PBS injection increased TAT (p<0.05) (18A) and D-Dimer (p<0.05) (18B) levels to similar levels induced by LPS (5 μg/mg).
(§1) FIG. 19: IL-6 as a marker of sepsis severity Heparanase, LPS and LPS+heparanase were injected intra-peritoneal to ICR mice. Four hours later the blood was drawn and IL-6 level was measured by ELISA.
(§2) Methods: ICR mice, heparanase knock-out mice and heparanase over-expression mice were studied. Sepsis was induced by intra-peritoneal injection of lipopolysaccharides (LPS). Inhibitory peptides to TF/heparanase complex (number 11, 22, 5, 6, 7, 12, and 21 [SEQ IDs: 1-7]) were injected intra-peritoneal half an hour after heparanase or LPS. After 4 hours blood was obtained via sub-mandibular plexus puncture followed by mice sacrificing. Levels of thrombin-antithrombin (TAT), D-Dimer and IL-6 were tested using ELISA. Western blot to plasma factor VII and immunostaining of fibrinogen in lung, kidney and spleen were performed.

ICR mice [3] = test: LPS-induced sepsis in ICR mice; format: in vivo
Experimental: as §1
Heparanase, LPS and LPS+heparanase were injected intra-peritoneal to ICR mice. Four hours later the blood was drawn and thrombin-antithrombin (TAT) (20A) and D-dimer (20B) levels were evaluated by ELISA. Levels of TAT and D-dimer were reduced in the LPS+heparanase group compared to LPS alone in accordance with a severe activation of the coagulation system (p<0.05).
as §2

factor X = biological target: T2, factor X (Homo sapiens, UniProt P00742); test: Direct activation of factor X by heparanase; format: biochemical; details: heparanase with factor X, 15 min 37° C.
T2 construct: plasma-derived human factor X; purchased American Diagnostica (Stanford, Conn., USA); host or cells: purified from human plasma
T2 sequence (P00742 183-488 limits assumed): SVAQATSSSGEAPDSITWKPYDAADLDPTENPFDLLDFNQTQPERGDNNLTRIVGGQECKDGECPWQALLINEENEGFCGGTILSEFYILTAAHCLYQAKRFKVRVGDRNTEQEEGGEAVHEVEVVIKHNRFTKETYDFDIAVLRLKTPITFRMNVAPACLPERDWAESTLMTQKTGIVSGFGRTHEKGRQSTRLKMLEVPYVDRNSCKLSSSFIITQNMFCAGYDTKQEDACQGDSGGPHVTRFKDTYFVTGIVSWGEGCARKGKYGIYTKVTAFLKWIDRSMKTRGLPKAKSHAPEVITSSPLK
T2 sequence (P00742 41-179 limits assumed): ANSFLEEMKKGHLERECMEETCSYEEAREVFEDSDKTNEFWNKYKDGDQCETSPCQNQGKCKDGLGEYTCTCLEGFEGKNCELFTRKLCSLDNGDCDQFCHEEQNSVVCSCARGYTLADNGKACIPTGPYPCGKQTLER

prothrombin = biological target: T3, prothrombin (Homo sapiens, UniProt P00734); test: Direct activation of prothrombin by heparanase; format: biochemical; details: heparanase with prothrombin, 15 min 37° C.
T3 construct: plasma-derived human prothrombin; purchased American Diagnostica (Stanford, Conn., USA); host or cells: purified from human plasma

[4] = heparanase 0.5 μg/mg intra-peritoneal, 4 hours, compared to PBS
[5] = LPS+heparanase compared to LPS alone, 4 hours
[6] = heparanase half an hour following LPS

T1 sequence (P13726 33-295): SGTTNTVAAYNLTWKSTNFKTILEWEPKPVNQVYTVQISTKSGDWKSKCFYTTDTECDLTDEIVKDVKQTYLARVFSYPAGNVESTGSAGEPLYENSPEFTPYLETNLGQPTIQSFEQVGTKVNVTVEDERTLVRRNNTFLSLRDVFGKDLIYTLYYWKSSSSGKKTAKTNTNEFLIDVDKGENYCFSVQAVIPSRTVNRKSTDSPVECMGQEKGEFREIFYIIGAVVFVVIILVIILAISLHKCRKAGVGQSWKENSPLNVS
T1 sequence (P08709 61-212 partner limits assumed): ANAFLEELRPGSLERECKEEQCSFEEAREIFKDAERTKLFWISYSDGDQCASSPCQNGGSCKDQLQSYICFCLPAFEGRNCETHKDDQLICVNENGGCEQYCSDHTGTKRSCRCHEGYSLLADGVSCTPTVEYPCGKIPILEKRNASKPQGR
T1 sequence (P08709 213-466 partner limits assumed): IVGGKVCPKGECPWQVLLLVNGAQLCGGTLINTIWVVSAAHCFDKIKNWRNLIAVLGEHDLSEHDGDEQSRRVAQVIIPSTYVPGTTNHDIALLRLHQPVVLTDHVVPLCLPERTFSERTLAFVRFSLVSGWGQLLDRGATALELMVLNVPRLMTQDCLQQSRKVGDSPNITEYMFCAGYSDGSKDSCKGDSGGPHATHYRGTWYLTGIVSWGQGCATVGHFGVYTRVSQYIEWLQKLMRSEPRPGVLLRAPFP

- increase in coagulation activity (factor Xa level) (TF-factor VIIa complex; TF, factor VIIa, factor X, 15 min 37° C., heparanase added prior to the coagulation factors): 2 fold
- effect on Xa generation at reduced factor VIIa (TF-factor VIIa complex; absence of sufficient factor VIIa): effect of heparanase was abolished
- increase in factor Xa levels (TF-factor VIIa complex; overnight serum-free medium of 293 HEK cells over-expressing heparanase species, compared to mock): 2 fold
- Xa generation at reduced TF (TF-factor VIIa complex; very low levels of TF (3.13 μg)): increased Xa generation by three folds
- factor Xa generation in incomplete reaction mixture (TF-factor VIIa complex; without TF, factor VIIa or factor X, or with inactivated VIIa): Factor Xa was not generated
- interaction with TF [1]: interacts with TF
- factor Xa generation from factor X alone (factor X): no factor Xa was generated
- thrombin generation from prothrombin alone (prothrombin): no thrombin was generated
B1: heparanase: single chain GS3 active heparanase, comprised of the 8 kDa and 50 kDa heparanase heterodimer (8+50), recombinant human (protein, listed as Homo sapiens)
chain 1: DPAQDVVDLDFFTQEPLHLVSPSFLSVTIDANLATDPRFLILLGSPKLRTLARGLSPAYLRFGGTKTDFLIFDPKKE
chain 2: DPGKKFKNSTYSRSSVDVLYTFANCSGLDLIFGLNALLRTADLQWNSSNAQLLLDYCSSKGYNISWELGNEPNSFLKKADIFINGSQLGEDFIQLHKLLRKSTFKNAKLYGPDVGQPRRKTAKMLKSFLKAGGEVIDSVTWHHYYLNGRTATREDFLNPDVLDIFISSVQKVFQVVESTRPGKKVWLGETSSAYGGGAPLLSDTFAAGFMWLDKLGLSARMGIEVVMRQVFFGAGNYHLVDENFDPLPDYWLSLLFKKLVGTKVLMASVQGSKRRKLRVYLHCTNTDNPRYKEGDLTLYAINLHNVTKYLRLPYPFSNKQVDKYLLRPLGPHGLLSKSVQLNGLTLKMVDDQTLPPLMEKPLRPGSSLGLPAFSYSFFVIRNAKVAACI
modifications: single-chain GS3 linker
- signs of illness (ICR mice [2]; heparanase 0.5 μg/mg intra-peritoneal): mice did not show signs of illness
- D-dimer level (ICR mice [2]; [4]): increased
- TAT level (ICR mice [2]; [4]): increased
- IL-6 level (ICR mice [2]; 4 hours): levels of IL-6 did not rise
- IL-6 level (ICR mice [2]; 4 hours, listed as Heparanase): did not increase IL-6 level
- D-dimer level (ICR mice [3]; [5]): reduced levels
- IL-6 level (ICR mice [3]; [5]): further augmented IL-6 level compared to LPS alone
- TAT level (ICR mice [3]; [5]): reduced levels
- blood leak from puncture (ICR mice [3]; [6]): profuse blood leak from puncture
- factor VII by western blot (ICR mice [3]; [6]): reduced levels
- fibrinogen by immunostaining (ICR mice [3]; [6]): reduced levels
- levels of IL-1 (ICR mice [3]; [6]): maximal levels of IL-1

— patent publication US11448657B2, “Methods and kits for assessing Heparanase procoagulant activity, compositions comprising Heparanase, and methods for the treatment of coagulation-related disorders” (RAMBAM MED-TECH, priority 2011, dated 2022)
